Measurements as given in patent US5187153A, “Methods of treatment using Alzheimer's amyloid polypeptide derivatives” (Scios Nova Inc., priority 1990, dated 1993).
Where two headings read alike, the source gives them in different places. Values belong to the substance of their own block, whether it stands above or below them. Where no end group is shown, it is not given here.

Legend:
[1] = test system: α-Thrombin; test: Protease inhibition, fluorogenic MCA substrate: α-thrombin; format: biochemical
Text: (§1) The effects of A4 inhibitor on serine- and thiol- proteases were examined as follows: trypsin (17,000 units/mg from porcine pancreas), factor Xa and β-thrombin (gifts from Dr. Iwanagu, Kyushu University, Fukuoka, Japan), tryptase and chymase (both from rat peritoneal mast cells purified as described in Kido et al., Arch Biochem Biophys 239:436-443 (1985)), α-chymotrypsin (0.75 U/mg from bovine pancreas), elastase (33 U/mg from porcine pancreas), papain, cathepsin B (from rat liver purified as described in Towatari et al., Eur J Biochem 102:279-289 (1979)), plasmin (0.16 U/mg from human plasma), urokinase (0.75 U/mg from human kidney cells, Sigma Chemical Co.), tissue kallikrein (50 U/mg from porcine pancreas) or plasma kallikrein (9.4 U/mg from human plasma) was preincubated with various concentrations of the inhibitor in a total volume of 1.5 ml of buffer containing bovine serum albumin (0.1 mg/ml). […] The amount of 7-amino-4-methylcoumarin liberated from the substrates was determined fluorometrically with excitation and emission wavelengths of 380 nm and 460 nm, respectively, in a Hitachi fluorescence spectrophotometer, 650-10MS model, as reported in Kido et al. (1988), supra. Protein concentration was determined with bicinchoninic acid protein assay reagent as described by Smith et al., Anal. Biochem. 150:76-85 (1985). […]

[2] = biological target: T1, α-chymotrypsin (Bos taurus, UniProt P00766); test: Protease inhibition, fluorogenic MCA substrate: α-chymotrypsin; format: biochemical, bovine
T1 construct: α-chymotrypsin (0.75 U/mg from bovine pancreas); from tissue; host or cells: bovine pancreas
Text: as §1

[3] = biological target: Factor Xa; test: Protease inhibition, fluorogenic MCA substrate: factor Xa; format: biochemical; conditions: substrate Boc-Ile-Glu-Gly-Arg-MCA, pH 8.0, 25° C.
Text: as §1

[4] = biological target: T2, trypsin (Sus scrofa, UniProt P00761); test: Protease inhibition, fluorogenic MCA substrate: trypsin; format: biochemical, porcine
T2 construct: trypsin (17,000 units/mg from porcine pancreas); from tissue; host or cells: porcine pancreas
Text: The effects of A4 inhibitor on serine- and thiol- proteases were examined as follows: trypsin (17,000 units/mg from porcine pancreas), factor Xa and β-thrombin (gifts from Dr. Iwanagu, Kyushu University, Fukuoka, Japan), tryptase and chymase (both from rat peritoneal mast cells purified as described in Kido et al., Arch Biochem Biophys 239:436-443 (1985)), α-chymotrypsin (0.75 U/mg from bovine pancreas), elastase (33 U/mg from porcine pancreas), papain, cathepsin B (from rat liver purified as described in Towatari et al., Eur J Biochem 102:279-289 (1979)), plasmin (0.16 U/mg from human plasma), urokinase (0.75 U/mg from human kidney cells, Sigma Chemical Co.), tissue kallikrein (50 U/mg from porcine pancreas) or plasma kallikrein (9.4 U/mg from human plasma) was preincubated with various concentrations of the inhibitor in a total volume of 1.5 ml of buffer containing bovine serum albumin (0.1 mg/ml). The buffers used were as follows: 0.1 M Tris-HCl, pH 7.5, for trypsin, plasmin and urokinase; 0.1 M Tris-HCl, pH 8.0, for chymase and α-chymotrypsin; 0.1 M Tris-HCl, pH 8.0, containing 10 mM CaCl2 for factor Xa and α-thrombin; 0.1 M Tris-HCl, pH 8.5, for tryptase M; 0.1 M Tris-HCl, pH 7.8, for plasma and tissue kallikrein; 0.1 M Tris-HCl, pH 7.0 for elastase; 50 mM acetate, pH 6.0, containing 1 mM EDTA and 4 mM cysteine for papain and cathepsin B. After preincubation for 5 min at 25° C., 7.5 μl of 20 mM concentrations of the fluorogenic substrate shown in Table I were added and the residual activity of each protease was measured in a quartz cuvette maintained thermostatically at 25° C. The amount of 7-amino-4-methylcoumarin liberated from the substrates was determined fluorometrically with excitation and emission wavelengths of 380 nm and 460 nm, respectively, in a Hitachi fluorescence spectrophotometer, 650-10MS model, as reported in Kido et al. (1988), supra. Protein concentration was determined with bicinchoninic acid protein assay reagent as described by Smith et al., Anal. Biochem. 150:76-85 (1985). […]

[5] = biological target: T3, Urokinase (Homo sapiens, UniProt P00749); test: Protease inhibition, fluorogenic MCA substrate: urokinase; format: biochemical
T3 construct: urokinase (0.75 U/mg from human kidney cells, Sigma Chemical Co.); purchased Sigma Chemical Co; host or cells: human kidney cells
Text: as §1

[6] = biological target: T4, Plasmin (Homo sapiens, UniProt P00747); test: Protease inhibition, fluorogenic MCA substrate: plasmin; format: biochemical
T4 construct: plasmin (0.16 U/mg from human plasma); from tissue; host or cells: human plasma
Text: as §1

[7] = biological target: T5, Papain (Carica papaya, UniProt P00784); test: Protease inhibition, fluorogenic MCA substrate: papain; format: biochemical
T5 sequence (P00784 134-345): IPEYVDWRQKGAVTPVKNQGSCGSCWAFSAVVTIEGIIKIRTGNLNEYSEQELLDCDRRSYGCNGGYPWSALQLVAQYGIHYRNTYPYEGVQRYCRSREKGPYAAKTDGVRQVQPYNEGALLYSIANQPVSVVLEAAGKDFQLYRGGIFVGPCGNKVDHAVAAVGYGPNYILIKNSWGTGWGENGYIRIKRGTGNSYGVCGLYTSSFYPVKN
Text: as §1

[8] = biological target: T6, Cathepsin B (Rattus norvegicus, UniProt P00787); test: Protease inhibition, fluorogenic MCA substrate: cathepsin B; format: biochemical
T6 construct: cathepsin B (from rat liver purified as described in Towatari et al); from tissue; host or cells: rat liver
Text: as §1

[9] = test system: Tryptase M; test: Protease inhibition, fluorogenic MCA substrate: tryptase M; format: biochemical, rat
Text: as §1

[10] = biological target: T7, Chymase (Rattus norvegicus, UniProt P09650); test: Protease inhibition, fluorogenic MCA substrate: chymase; format: biochemical
T7 construct: tryptase and chymase (both from rat peritoneal mast cells purified as described in Kido et al); from tissue; host or cells: rat peritoneal mast cells
T7 sequence (P09650 21-260): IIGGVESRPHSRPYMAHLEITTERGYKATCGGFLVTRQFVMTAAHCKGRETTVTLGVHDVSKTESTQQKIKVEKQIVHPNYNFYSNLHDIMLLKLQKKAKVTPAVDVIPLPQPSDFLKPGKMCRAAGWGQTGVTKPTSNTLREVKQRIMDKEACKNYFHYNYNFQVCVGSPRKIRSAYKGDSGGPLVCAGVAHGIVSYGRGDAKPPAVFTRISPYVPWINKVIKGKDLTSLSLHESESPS
Text: as §1

[11] = biological target: T8, Elastase (Sus scrofa, UniProt P00772); test: Protease inhibition, fluorogenic MCA substrate: elastase; format: biochemical, porcine
T8 construct: elastase (33 U/mg from porcine pancreas); from tissue; host or cells: porcine pancreas
Text: as §1

[12] = biological target: T9, Tissue kallikrein (Sus scrofa, UniProt P00752); test: Protease inhibition, fluorogenic MCA substrate: tissue kallikrein; format: biochemical, porcine
T9 construct: tissue kallikrein (50 U/mg from porcine pancreas); from tissue; host or cells: porcine pancreas
Text: as §1

[13] = biological target: T10, Plasma kallikrein (Homo sapiens, UniProt P03952); test: Protease inhibition, fluorogenic MCA substrate: plasma kallikrein; format: biochemical
T10 construct: plasma kallikrein (9.4 U/mg from human plasma); from tissue; host or cells: human plasma
Text: as §1

[14] = biological target: Trypsin (Homo sapiens, UniProt P07477); test: Trypsin inhibition assay, release of p-nitroaniline from N-benzoyl-D-arginine-p-nitroaniline; format: biochemical; conditions: HPLC peaks of the purified inhibitor
Experimental: All 8 oligonucleotides encoding either the phoA or ompA fusions were mixed together and treated with ligase. […] The ligated constructs were then ligated into the NdeI-HindIII sites of the vector pTRP233. The ligated vectors were transfected into E. coli strain MC1061 and Amp^R colonies selected. […] Miniprep DNA was used to transfect strains W3110 and JE5505. Small scale cultures of each of the three strains were grown and induced with IAA overnight. Culture supernatants were examined for trypsin inhibitory activity. Trypsin is assayed for its ability to hydrolyze the synthetic substrate N-benzoyl-D-arginine-p-nitroaniline to release p-nitroaniline (pNA). The release of pNA as a function of time is easily monitored in a spectrophotomer and can be quantitated to measure trypsin activity. The inhibitor is detected in this assay by virtue of its ability to bind to trypsin and prevent hydrolysis of the substrate by trypsin. Inhibitory activity was detected in the culture medium for both ompA and phoA constructs in JE5505 but not W3110 or MC1061. Expression levels appeared to be higher with the phoA construct and so only this construct was used for subsequent experiments.

T2 sequence (P00761 9-231): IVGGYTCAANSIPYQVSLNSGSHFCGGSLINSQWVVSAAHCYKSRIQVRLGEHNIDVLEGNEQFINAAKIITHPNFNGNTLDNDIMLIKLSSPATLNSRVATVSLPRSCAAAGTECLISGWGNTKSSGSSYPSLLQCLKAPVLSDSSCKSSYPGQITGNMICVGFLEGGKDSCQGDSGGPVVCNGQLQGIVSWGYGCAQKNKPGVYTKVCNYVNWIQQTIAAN
T4 sequence (P00747 581-810 limits assumed): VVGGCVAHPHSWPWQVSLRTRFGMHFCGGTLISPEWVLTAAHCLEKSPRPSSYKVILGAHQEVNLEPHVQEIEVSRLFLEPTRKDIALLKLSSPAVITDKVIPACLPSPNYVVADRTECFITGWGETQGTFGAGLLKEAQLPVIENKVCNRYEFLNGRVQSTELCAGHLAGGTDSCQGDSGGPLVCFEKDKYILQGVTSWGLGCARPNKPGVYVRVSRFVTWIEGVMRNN
T4 sequence (P00747 97-580 partner limits assumed): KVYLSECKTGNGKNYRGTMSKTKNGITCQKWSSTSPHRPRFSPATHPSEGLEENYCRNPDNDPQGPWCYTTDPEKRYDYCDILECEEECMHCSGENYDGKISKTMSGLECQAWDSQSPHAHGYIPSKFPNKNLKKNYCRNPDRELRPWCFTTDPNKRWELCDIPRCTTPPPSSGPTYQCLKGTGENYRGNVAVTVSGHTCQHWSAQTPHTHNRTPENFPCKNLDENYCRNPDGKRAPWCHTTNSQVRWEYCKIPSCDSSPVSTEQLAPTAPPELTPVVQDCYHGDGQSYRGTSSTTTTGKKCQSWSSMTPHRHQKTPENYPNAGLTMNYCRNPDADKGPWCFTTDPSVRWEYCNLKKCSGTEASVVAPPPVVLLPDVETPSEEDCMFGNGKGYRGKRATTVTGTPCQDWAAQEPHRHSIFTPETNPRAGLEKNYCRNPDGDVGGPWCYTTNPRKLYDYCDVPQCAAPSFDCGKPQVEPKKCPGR
T10 sequence (P03952 20-638): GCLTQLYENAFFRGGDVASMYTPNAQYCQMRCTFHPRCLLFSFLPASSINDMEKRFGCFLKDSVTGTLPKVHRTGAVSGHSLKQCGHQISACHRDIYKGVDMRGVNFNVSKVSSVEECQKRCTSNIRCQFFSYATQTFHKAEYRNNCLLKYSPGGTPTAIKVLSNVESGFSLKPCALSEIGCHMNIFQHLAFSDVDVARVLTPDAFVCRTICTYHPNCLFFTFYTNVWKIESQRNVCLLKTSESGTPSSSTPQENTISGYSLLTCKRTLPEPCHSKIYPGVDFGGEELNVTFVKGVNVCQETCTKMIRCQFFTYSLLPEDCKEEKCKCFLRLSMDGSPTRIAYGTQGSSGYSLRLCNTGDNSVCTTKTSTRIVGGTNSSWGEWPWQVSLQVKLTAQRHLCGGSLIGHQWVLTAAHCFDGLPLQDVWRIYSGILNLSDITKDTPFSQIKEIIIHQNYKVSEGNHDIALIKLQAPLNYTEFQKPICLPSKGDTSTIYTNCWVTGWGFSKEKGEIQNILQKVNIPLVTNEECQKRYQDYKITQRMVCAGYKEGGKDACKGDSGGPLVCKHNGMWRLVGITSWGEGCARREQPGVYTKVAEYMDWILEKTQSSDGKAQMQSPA
T8 sequence (P00772 27-266): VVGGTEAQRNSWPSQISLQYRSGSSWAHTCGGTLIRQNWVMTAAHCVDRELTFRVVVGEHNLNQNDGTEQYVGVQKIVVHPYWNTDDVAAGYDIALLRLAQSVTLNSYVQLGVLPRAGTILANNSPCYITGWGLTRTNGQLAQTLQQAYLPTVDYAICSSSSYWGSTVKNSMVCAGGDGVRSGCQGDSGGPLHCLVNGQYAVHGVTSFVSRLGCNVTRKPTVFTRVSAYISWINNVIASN
T6 sequence (P00787 80-339): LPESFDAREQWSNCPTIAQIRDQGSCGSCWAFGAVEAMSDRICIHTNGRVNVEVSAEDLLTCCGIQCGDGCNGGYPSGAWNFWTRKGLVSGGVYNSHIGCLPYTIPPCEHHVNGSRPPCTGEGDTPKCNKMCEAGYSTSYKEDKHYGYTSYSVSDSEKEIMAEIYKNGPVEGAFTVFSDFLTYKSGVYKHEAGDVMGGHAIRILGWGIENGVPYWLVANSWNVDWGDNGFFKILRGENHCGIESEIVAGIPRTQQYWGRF
T9 sequence (P00752 8-246): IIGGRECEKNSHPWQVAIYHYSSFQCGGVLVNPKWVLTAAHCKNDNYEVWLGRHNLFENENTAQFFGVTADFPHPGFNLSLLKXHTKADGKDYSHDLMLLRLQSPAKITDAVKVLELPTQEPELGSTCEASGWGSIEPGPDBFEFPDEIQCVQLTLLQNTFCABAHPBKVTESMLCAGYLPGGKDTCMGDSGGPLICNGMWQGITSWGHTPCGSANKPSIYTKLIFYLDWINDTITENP

Substance: A4i: 57 amino acid Kunitz-type serine protease inhibitor encoded by the 168 bp insert of λAPCP168i4
- inhibition of α-thrombin (in words) [1]: did not inhibit
- Ki ([1]; α-Thrombin, substrate Boc-Val-Pro-Arg-MCA, pH 8.0, 25° C.): > 1000 nM
- inhibition of α-chymotrypsin (in words) [2]: inhibits
- Ki ([2]; α-chymotrypsin): 8.5 nM
- Ki [3]: 257 nM
- inhibition of pancreatic trypsin (in words) [4]: inhibits
- Ki ([4]; Trypsin, substrate Boc-Phe-Ser-Arg-MCA, pH 7.5, 25° C., read-out: Ki value): 2.7 nM
- Ki ([4]; pancreatic trypsin, read-out: Ki): 3 nM
- inhibition of urokinase (in words) [5]: did not inhibit
- Ki ([5]; Urokinase, substrate Glt-Gly-Arg-MCA, pH 7.5, 25° C.): > 1000 nM
- inhibition of plasmin (in words) [6]: strongly inhibits
- Ki ([6]; Plasmin, substrate Boc-Val-Leu-Lys-MCA, pH 7.5, 25° C.): 0.075 nM
- inhibition of papain (in words) [7]: did not inhibit
- Ki ([7]; Papain, substrate Z-Phe-Arg-MCA, pH 6.0, 25° C.): > 1000 nM
- inhibition of cathepsin B (in words) [8]: did not inhibit
- Ki ([8]; Cathepsin B, substrate Z-Phe-Arg-MCA, pH 6.0, 25° C.): > 1000 nM
- inhibition of tryptase (in words) [9]: strongly inhibits
- Ki ([9]; tryptase, unit inferred, read-out: dissociation constant Ki): 0.22 nM
- inhibition of chymase (in words) [10]: did not inhibit
- Ki ([10]; Chymase, substrate Suc-Leu-Leu-Val-Tyr-MCA, pH 8.0, 25° C.): > 1000 nM
- inhibition of pancreatic elastase (in words) [11]: did not inhibit
- Ki ([11]; Elastase, substrate Suc-Ala-Pro-Ala-MCA, pH 7.0, 25° C.): > 1000 nM
- inhibition of tissue kallikrein (in words) [12]: inhibits
- Ki ([12]; Tissue kallikrein, substrate Pro-Phe-Arg-MCA, pH 7.8, 25° C.): 28.4 nM
- inhibition of serum kallikrein (in words) [13]: inhibits
- Ki ([13]; Plasma kallikrein, substrate Z-Phe-Arg-MCA, pH 7.8, 25° C.): 73.9 nM

- activity in the trypsin inhibition assay [14]: active
Substance: peak 4: major HPLC peak of the purified inhibitor; full length A4i with 3 disulfide bridges (EVCSEQAETGPCRAMISRWYFDVTEGKCAPFFYGGCGGNRNNFDTEEYCMAVCGSAM; disulfide (positions not given here); UniProt P05067 289-345, looked up, fragment)
